# Patent publication US20030092035A1 (CALIFORNIA INSTITUTE OF TECHNOLOGY, published 2003)
# Ends that are not written are not given here.
# T1: MRGA1-GFP fusion protein (mouse, UniProt Q91WW5 1-304)
# T1 sequence: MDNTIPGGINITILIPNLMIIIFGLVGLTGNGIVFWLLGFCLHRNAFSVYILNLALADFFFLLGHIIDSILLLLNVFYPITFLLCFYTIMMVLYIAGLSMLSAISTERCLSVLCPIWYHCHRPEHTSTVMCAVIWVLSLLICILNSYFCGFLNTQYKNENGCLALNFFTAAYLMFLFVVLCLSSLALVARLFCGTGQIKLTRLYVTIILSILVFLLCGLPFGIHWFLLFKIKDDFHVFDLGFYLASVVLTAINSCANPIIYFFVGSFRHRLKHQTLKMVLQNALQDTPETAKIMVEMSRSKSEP
# T2: MRGA4-GFP fusion protein (mouse) (UniProt Q91WW2)
# T2 sequence: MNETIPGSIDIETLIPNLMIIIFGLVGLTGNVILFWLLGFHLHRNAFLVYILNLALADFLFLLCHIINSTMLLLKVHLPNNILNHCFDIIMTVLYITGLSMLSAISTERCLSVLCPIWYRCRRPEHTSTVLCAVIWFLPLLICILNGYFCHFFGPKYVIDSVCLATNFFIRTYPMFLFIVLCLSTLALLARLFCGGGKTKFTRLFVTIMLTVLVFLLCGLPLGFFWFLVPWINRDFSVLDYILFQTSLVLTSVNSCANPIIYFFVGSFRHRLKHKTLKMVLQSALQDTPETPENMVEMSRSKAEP
# Key:
# [1] = target: T1, MRGA1-GFP fusion protein; experiment: cell-based or functional assay
# [2] = target: T2, MRGA4-GFP fusion protein (mouse); experiment: cell-based or functional assay
"EC50, Ca2+ dose-response in HEK-Galpha15 cells [1] [nM]","EC50, Ca2+ dose-response in HEK-Galpha15 cells [2] [nM]",Molecule
200,,NPFF (peptide)
60,200,ACTH (peptide)

# Second part, the molecule before the results:
Molecule,"EC50, Ca2+ dose-response in HEK-Galpha15 cells [1] [nM]","EC50, Ca2+ dose-response in HEK-Galpha15 cells [2] [nM]"
"AGEGLNSQFWSLAAPQRF-NH2 (peptide, UniProt O15130 93-110, looked up, species assumed, ends and bridges not checked) [NPAF]",,60
FLRF-NH2 [FLRFamide],~20,
